Assay results taken from article PMC9482650, “Quantitative fragmentomics allow affinity mapping of interactomes” (Nature Communications, 2022).
One block for each binder: values may come before it.

Columns and labels:
Assay in all cases: holdup assay
Parameters in all cases: key: below the threshold = too weak to quantify, mostly under pKd 3.1 to 4
Inadl_10, Q8NI35 = molecular target: Inadl_10, Q8NI35
NHERF4_2, Q86UT5 = molecular target: NHERF4_2, Q86UT5
GRIP1_4, Q9Y3R0 = molecular target: T1, GRIP1_4, Q9Y3R0
T1 sequence (Q9Y3R0 467-571, limits assumed, looked up): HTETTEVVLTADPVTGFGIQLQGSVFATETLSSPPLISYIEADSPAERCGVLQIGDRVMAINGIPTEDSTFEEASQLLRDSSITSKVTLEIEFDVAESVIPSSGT

FRMPD2_1, Q68DX3 = molecular target: FRMPD2_1, Q68DX3
Inadl_4, Q8NI35 = molecular target: Inadl_4, Q8NI35
MPDZ_5, O75970 = molecular target: T2, MPDZ_5, O75970
T2 sequence (O75970 695-796, limits assumed, looked up): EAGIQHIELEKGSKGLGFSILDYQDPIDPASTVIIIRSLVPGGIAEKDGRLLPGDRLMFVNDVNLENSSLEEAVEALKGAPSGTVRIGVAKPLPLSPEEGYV

FRMPD4, Q14CM0 = molecular target: FRMPD4, Q14CM0
GRIP1_5, Q9Y3R0 = molecular target: T3, GRIP1_5, Q9Y3R0
T3 sequence (Q9Y3R0 568-668, limits assumed, looked up): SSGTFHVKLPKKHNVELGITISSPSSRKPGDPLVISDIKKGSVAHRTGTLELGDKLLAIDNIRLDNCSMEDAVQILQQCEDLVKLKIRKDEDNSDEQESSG

PDZRN4_1, Q6ZMN7 = molecular target: PDZRN4_1, Q6ZMN7
SHANK1, Q9Y566 = molecular target: T4, SHANK1, Q9Y566
T4 sequence (Q9Y566 658-767, limits assumed, looked up): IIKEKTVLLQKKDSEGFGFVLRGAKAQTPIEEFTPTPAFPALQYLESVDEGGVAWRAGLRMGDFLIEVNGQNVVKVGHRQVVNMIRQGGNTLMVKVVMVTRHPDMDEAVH

MAGI2_3, Q86UL8 = molecular target: MAGI2_3, Q86UL8
SIPA1L2, Q9P2F8 = molecular target: T5, SIPA1L2, Q9P2F8
T5 sequence (Q9P2F8 945-1036, limits assumed, looked up): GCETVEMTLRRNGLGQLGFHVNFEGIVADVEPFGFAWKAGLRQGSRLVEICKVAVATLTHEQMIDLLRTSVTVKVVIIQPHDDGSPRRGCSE

FRMPD3, Q5JV73 = molecular target: FRMPD3, Q5JV73
MAGI3_2, Q5TCQ9 = molecular target: MAGI3_2, Q5TCQ9
LNX1_3, Q8TBB1 = molecular target: LNX1_3, Q8TBB1
APBA1_2, Q02410 = molecular target: T6, APBA1_2, Q02410
T6 sequence (Q02410 742-832, limits assumed, looked up): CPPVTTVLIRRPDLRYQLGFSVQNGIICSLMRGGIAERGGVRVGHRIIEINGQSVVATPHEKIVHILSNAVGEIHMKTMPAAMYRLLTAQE

DLG2_3, Q15700 = molecular target: DLG2_3, Q15700
NOS1, P29475 = molecular target: NOS1, P29475
LNX2_2, Q8N448 = molecular target: T7, LNX2_2, Q8N448
T7 sequence (Q8N448 334-432, limits assumed, looked up): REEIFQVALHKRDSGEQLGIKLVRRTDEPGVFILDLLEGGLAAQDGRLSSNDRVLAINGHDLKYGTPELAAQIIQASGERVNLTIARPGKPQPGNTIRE

PTPN3, P26045 = molecular target: PTPN3, P26045
PARD3B_1, Q8TEW8 = molecular target: T8, PARD3B_1, Q8TEW8
T8 sequence (Q8TEW8 196-299, limits assumed, looked up): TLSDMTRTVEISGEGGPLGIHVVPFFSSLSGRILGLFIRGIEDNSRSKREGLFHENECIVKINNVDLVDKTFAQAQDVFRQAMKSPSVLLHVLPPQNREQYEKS

Inadl_6, Q8NI35 = molecular target: Inadl_6, Q8NI35
PDZD7_3, Q9H5P4 = molecular target: T9, PDZD7_3, Q9H5P4
T9 sequence (Q9H5P4 857-944, limits assumed, looked up): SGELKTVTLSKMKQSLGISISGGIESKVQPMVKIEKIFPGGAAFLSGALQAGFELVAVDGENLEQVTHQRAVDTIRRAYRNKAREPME

Inadl_1, Q8NI35 = molecular target: Inadl_1, Q8NI35
PDLIM1, O00151 = molecular target: PDLIM1, O00151
FRMPD1, Q5SYB0 = molecular target: T10, FRMPD1, Q5SYB0
T10 sequence (Q5SYB0 52-145, limits assumed, looked up): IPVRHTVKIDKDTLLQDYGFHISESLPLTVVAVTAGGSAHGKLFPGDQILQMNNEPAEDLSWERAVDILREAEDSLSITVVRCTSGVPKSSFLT

DFNB31_3, Q9P202 = molecular target: T11, DFNB31_3, Q9P202
T11 sequence (Q9P202 811-907, limits assumed, looked up): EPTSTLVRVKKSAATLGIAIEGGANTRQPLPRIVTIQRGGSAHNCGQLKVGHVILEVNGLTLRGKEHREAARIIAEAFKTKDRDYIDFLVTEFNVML

[1] = plain residues with an end cap or a label only (N-terminal biotin on a linker: ahx)
[2] = plain residues with an end cap or a label only (N-terminal biotin on a linker: ado-ado)
[3] = plain residues with an end cap or a label only (N-terminal biotin on a linker: ttds)

Sequence of FRMPD3, Q5JV73 (Q5JV73 12-100): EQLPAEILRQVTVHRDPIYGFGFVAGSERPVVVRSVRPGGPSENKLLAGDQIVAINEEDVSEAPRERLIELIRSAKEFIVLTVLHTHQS
Sequence of PTPN3, P26045 (P26045 505-587): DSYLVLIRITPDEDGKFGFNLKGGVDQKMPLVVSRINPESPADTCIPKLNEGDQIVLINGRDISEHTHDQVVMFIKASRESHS
Sequence of FRMPD4, Q14CM0 (Q14CM0 67-160): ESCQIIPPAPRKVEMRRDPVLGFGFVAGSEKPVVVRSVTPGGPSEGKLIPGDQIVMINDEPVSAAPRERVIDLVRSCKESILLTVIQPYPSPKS
Sequence of LNX1_3, Q8TBB1 (Q8TBB1 500-596): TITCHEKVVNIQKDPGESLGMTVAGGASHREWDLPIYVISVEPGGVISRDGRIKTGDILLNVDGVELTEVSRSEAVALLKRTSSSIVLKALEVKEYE
Sequence of MAGI2_3, Q86UL8 (Q86UL8 600-682): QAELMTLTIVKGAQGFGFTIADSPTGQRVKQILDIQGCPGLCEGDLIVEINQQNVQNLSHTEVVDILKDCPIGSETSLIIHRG
Sequence of MAGI3_2, Q5TCQ9 (Q5TCQ9 398-503): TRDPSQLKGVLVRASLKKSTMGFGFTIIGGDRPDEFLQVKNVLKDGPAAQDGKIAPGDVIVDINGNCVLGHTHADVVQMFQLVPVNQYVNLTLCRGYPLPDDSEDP
Sequence of PDLIM1, O00151 (O00151 1-87): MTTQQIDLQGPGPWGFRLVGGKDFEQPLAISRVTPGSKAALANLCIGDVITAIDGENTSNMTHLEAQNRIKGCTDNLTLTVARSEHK
Sequence of NHERF4_2, Q86UT5 (Q86UT5 220-308): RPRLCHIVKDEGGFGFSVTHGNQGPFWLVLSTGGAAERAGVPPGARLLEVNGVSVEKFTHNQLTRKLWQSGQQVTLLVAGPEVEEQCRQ
Sequence of Inadl_4, Q8NI35 (Q8NI35 547-651): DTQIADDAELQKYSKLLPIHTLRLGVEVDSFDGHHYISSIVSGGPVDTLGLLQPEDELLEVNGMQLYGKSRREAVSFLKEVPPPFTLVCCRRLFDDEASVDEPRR
Sequence of PDZRN4_1, Q6ZMN7 (Q6ZMN7 213-318): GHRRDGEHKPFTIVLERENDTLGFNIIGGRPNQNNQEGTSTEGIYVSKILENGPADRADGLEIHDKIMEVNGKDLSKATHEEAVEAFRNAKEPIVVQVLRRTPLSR
Sequence of NOS1, P29475 (P29475 9-101): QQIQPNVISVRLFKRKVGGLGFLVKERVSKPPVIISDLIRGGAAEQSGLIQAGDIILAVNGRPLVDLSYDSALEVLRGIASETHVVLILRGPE
Sequence of Inadl_1, Q8NI35 (Q8NI35 113-229): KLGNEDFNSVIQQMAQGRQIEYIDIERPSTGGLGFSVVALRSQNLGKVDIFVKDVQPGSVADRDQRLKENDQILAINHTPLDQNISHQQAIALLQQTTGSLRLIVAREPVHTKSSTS
Sequence of FRMPD2_1, Q68DX3 (Q68DX3 770-861): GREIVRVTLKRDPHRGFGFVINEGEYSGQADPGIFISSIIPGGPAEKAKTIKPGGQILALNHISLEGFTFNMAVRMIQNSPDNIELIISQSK
Sequence of Inadl_10, Q8NI35 (Q8NI35 1673-1763): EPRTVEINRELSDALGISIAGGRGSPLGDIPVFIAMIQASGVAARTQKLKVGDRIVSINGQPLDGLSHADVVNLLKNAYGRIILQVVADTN
Sequence of Inadl_6, Q8NI35 (Q8NI35 1058-1167): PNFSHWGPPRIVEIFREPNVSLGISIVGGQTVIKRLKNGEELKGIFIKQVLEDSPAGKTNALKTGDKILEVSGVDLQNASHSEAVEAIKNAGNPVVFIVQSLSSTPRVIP

pKd (Inadl_10, Q8NI35; [1]): 3.62
pKd (NHERF4_2, Q86UT5; [1]): below the threshold
pKd (GRIP1_4, Q9Y3R0; [1]): below the threshold
pKd (FRMPD2_1, Q68DX3; [1]): below the threshold
pKd (Inadl_4, Q8NI35; [1]): below the threshold
pKd (MPDZ_5, O75970; [1]): below the threshold
pKd (FRMPD4, Q14CM0; [1]): 3.83
pKd (GRIP1_5, Q9Y3R0; [1]): below the threshold
pKd (PDZRN4_1, Q6ZMN7; [1]): below the threshold
pKd (SHANK1, Q9Y566; [1]): 4.39
pKd (MAGI2_3, Q86UL8; [1]): below the threshold
pKd (SIPA1L2, Q9P2F8; [1]): below the threshold
pKd (FRMPD3, Q5JV73; [1]): below the threshold
pKd (MAGI3_2, Q5TCQ9; [1]): below the threshold
pKd (LNX1_3, Q8TBB1; [1]): below the threshold
pKd (APBA1_2, Q02410; [1]): 4.17
pKd (DLG2_3, Q15700; [1]): 3.52
pKd (NOS1, P29475; [1]): below the threshold
pKd (LNX2_2, Q8N448; [1]): below the threshold
pKd (PTPN3, P26045; [1]): 4.27
pKd (PARD3B_1, Q8TEW8; [1]): 3.65
pKd (Inadl_6, Q8NI35; [1]): 4.8
pKd (PDZD7_3, Q9H5P4; [1]): 4.14
pKd (Inadl_1, Q8NI35; [1]): below the threshold
pKd (PDLIM1, O00151; [1]): 4.41
pKd (FRMPD1, Q5SYB0; [1]): below the threshold
pKd (DFNB31_3, Q9P202; [1]): below the threshold
B1: TJP3, O95049 (peptide)
chain: GYDWGPATDL

pKd (Inadl_10, Q8NI35; [2]): below the threshold
pKd (NHERF4_2, Q86UT5; [2]): below the threshold
pKd (GRIP1_4, Q9Y3R0; [2]): below the threshold
pKd (FRMPD2_1, Q68DX3; [2]): below the threshold
pKd (Inadl_4, Q8NI35; [2]): below the threshold
pKd (MPDZ_5, O75970; [2]): below the threshold
pKd (FRMPD4, Q14CM0; [2]): 3.61
pKd (GRIP1_5, Q9Y3R0; [2]): below the threshold
pKd (PDZRN4_1, Q6ZMN7; [2]): below the threshold
pKd (SHANK1, Q9Y566; [2]): below the threshold
pKd (MAGI2_3, Q86UL8; [2]): below the threshold
pKd (SIPA1L2, Q9P2F8; [2]): below the threshold
pKd (FRMPD3, Q5JV73; [2]): below the threshold
pKd (MAGI3_2, Q5TCQ9; [2]): below the threshold
pKd (LNX1_3, Q8TBB1; [2]): below the threshold
pKd (APBA1_2, Q02410; [2]): 4.06
pKd (DLG2_3, Q15700; [2]): below the threshold
pKd (NOS1, P29475; [2]): below the threshold
pKd (LNX2_2, Q8N448; [2]): below the threshold
pKd (PTPN3, P26045; [2]): below the threshold
pKd (PARD3B_1, Q8TEW8; [2]): 4.06
pKd (Inadl_6, Q8NI35; [2]): below the threshold
pKd (PDZD7_3, Q9H5P4; [2]): 4.04
pKd (Inadl_1, Q8NI35; [2]): below the threshold
pKd (PDLIM1, O00151; [2]): below the threshold
pKd (FRMPD1, Q5SYB0; [2]): below the threshold
pKd (DFNB31_3, Q9P202; [2]): 3.93
B2: TRIM50, Q86XT4 (peptide)
chain: PLSPEQPTKL

pKd (Inadl_10, Q8NI35; [3]): below the threshold
pKd (NHERF4_2, Q86UT5; [3]): below the threshold
pKd (GRIP1_4, Q9Y3R0; [3]): below the threshold
pKd (FRMPD2_1, Q68DX3; [3]): below the threshold
pKd (Inadl_4, Q8NI35; [3]): below the threshold
pKd (MPDZ_5, O75970; [3]): below the threshold
pKd (FRMPD4, Q14CM0; [3]): 3.4
pKd (GRIP1_5, Q9Y3R0; [3]): below the threshold
pKd (PDZRN4_1, Q6ZMN7; [3]): 4.67
pKd (SHANK1, Q9Y566; [3]): below the threshold
pKd (MAGI2_3, Q86UL8; [3]): 4.05
pKd (SIPA1L2, Q9P2F8; [3]): below the threshold
pKd (FRMPD3, Q5JV73; [3]): below the threshold
pKd (MAGI3_2, Q5TCQ9; [3]): 5.27
pKd (LNX1_3, Q8TBB1; [3]): below the threshold
pKd (APBA1_2, Q02410; [3]): below the threshold
pKd (DLG2_3, Q15700; [3]): 5.15
pKd (NOS1, P29475; [3]): below the threshold
pKd (LNX2_2, Q8N448; [3]): 4.47
pKd (PTPN3, P26045; [3]): 4.89
pKd (PARD3B_1, Q8TEW8; [3]): 3.45
pKd (Inadl_6, Q8NI35; [3]): below the threshold
pKd (PDZD7_3, Q9H5P4; [3]): 5.01
pKd (Inadl_1, Q8NI35; [3]): below the threshold
pKd (PDLIM1, O00151; [3]): below the threshold
pKd (FRMPD1, Q5SYB0; [3]): below the threshold
pKd (DFNB31_3, Q9P202; [3]): below the threshold
B3: FRMPD4, Q14CM0 (peptide)
chain: RLPKIKETTV
